assay: yeast display, Sf9 membrane polyspecificity reagent, FACS + sequencing; frameworks hold sequencing errors
Summary of the method: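 Nanobodies came from a synthetic yeast display library in Saccharomyces cerevisiae BJ5465, induced with galactose for 36–48 hours and stained for 1 hour at 4 °C with 10% biotinylated, detergent-solubilized Sf9 membrane reagent. Cells were enriched on streptavidin microbeads and then FACS-sorted, with low and high (top ~1%) gates set on anti-HA fluorescence for expression and streptavidin fluorescence for reagent binding. Each polyreactivity label reflects the gate a clone came from. Genes were amplified by colony PCR, sequenced by MiSeq 2 × 250 and filtered by CDR length.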

| Sequence | polyreactivity (PSR sort gate) |
| --- | --- |
| QVHLVESGGGLVQAGGSHRLSCAASGSTLRWNAMGWYRQAPGKERELVAAITYSGGSTYYADSVKGRFTISRDNAKNTVYFQMNSLKPEDTAVYYCAADSYRYRPGYGPVLYDYWGQGTQVTVSS | high polyreactivity |
| QVHLVESGGGLVQAGGSIRLSCAASGGTFSRNAMGWYRQAPGKERELVAAINSSGVSTSYADSVKGRFTISRDNAKNNVYLQMNSLKPEDTAVYYCAAETSSAEVDYWGQGTQVTVSS | low polyreactivity |
| QVHLVESGGGLVQAGGSLGISCAASGRILYGYAMGWNRQAPGKERELVAAITATYYADSVKGRFTISRDNAKNSVYLQMNSLNPEDTGVFYCNAYLCPIQPLSPPDPTFEGGYWGQGTQVTVSS | low polyreactivity |
| QVHLVESGGGLVQAGGSLGLSCAASGFTFANNAMGWYRQAPGKERELVAAISSSGGSTYYADSVKVRFTISRDNAKKTVYLQMNSLKPEDTAVYYCAARRRGSYYGYGYWGQGTQVTVSS | high polyreactivity |
| QVHLVESGGGLVQAGGSLRISCAASGRIFVGYVMGWYRQAPGKERELVAAITWRGGSTYADSVKGRFTISRDNAKNTVYLQMNSLIPEDTAVYYCAAKVSRTYPRIPYYYWGQGTQVTVSS | high polyreactivity |
| QVHLVESGGGLVQAGGSLRISFAASGRTFPYYDMGWYRQAPGKERELVAAINSGGRTNYADSVKGRFTISRDNAKNTVYLQLNSLKPEDTAVYYCTKRGHPSRLGYYYWGLGTQVTVSS | low polyreactivity |
| QVHLVESGGGLVQAGGSLRLICAASGSIFRWNAMGWYRQAPGKEREFVATISSGRNTKYADSVKGRFTISRDNAKNTVYLQMTSLKPQDTAVNDCAAAVKRALDYWGQGTQVTVSS | high polyreactivity |
| QVHLVESGGGLVQAGGSLRLICAASGYTFAFYAMGCYRQAPGKERELVAAISAGGGRTYYADSVKGRFTISRDNANNTVYLQMNSLKPEDTAVYYCATDLIQGAAPFRYDYWGQGTQVTVSS | low polyreactivity |
| QVHLVESGGGLVQAGGSLRLILAASGYIFSSNAMGWYRQAPGKEREFVADISSTGGSTYYADSVKGRFTISRDNAKNTVYCQMNILKPEDTGVYYCAAYIRRYFHYDYWGQGTQVTGSS | high polyreactivity |
| QVHLVESGGGLVQAGGSLRLRCAASGSNLESYAMGWYRQAPGKEMELVADITYDGGITYYADSVKGRFTISRDNAKNTVYLQMNSLKPEDTAVYYCATEYRYWQSDYSTYFPYDYWGQGTQVTVSS | low polyreactivity |
| QVHLVESGGGLVQAGGSLRLSCAASGFIFSGYALGWKRQAPGKERELVAAITSSGDGTYYADSVKGRFTISRDNAKNTVYLQMNSLTPEDTAVYYCNAGRARYFWRTDRFDYWGQGTQVTVSS | high polyreactivity |
| QVHLVESGGGLVQAGGSLRLSCAASGFIFTDYAMGWYRQAPGKERELVAAISSGGRTYYADSVKGRFTISRDNAKNTVYLQMNSLKPEDTAVYYCARGGRAEGWGQGTQVTVSS | high polyreactivity |
| QVHLVESGGGLVQAGGSLRLSCAASGFIFYLYAMGWYRQAPGKERELVASITSSGRTNYADSVKGRFTISRDNAKNTVYLQMNSLKPEDTAVYYCNKRYSKGDEYYYWGQGTQVTVSS | high polyreactivity |
| QVHLVESGGGLVQAGGSLRLSCAASGFLFRTYAMGWYRPGPGKERELVDAISNDANTKYADSVKGRFTISRDNAKNTVYLQMNSLKPEDTAVYYGAAKAIYRGRYLKIVKVGYWGQGTQVTVSS | high polyreactivity |
| QVHLVESGGGLVQAGGSLRLSCAASGFTFGHYAMGWYRQAPGKERELVAAITYRGGSTYYADSVKGRFTISRDNAKNTVYLQMNSLKPEDTAVYYCNADRRYKVYFAQNGHYDYWGQGTQVTVSS | high polyreactivity |
| QVHLVESGGGLVQAGGSLRLSCAASGFTFLDNAMGWYRQAPGKERELVAAISGIGGSTSYADSVKGRFTISRDNAKNTVYLQMNSLKPEDTAVYYCATRWKTVGRDTIFAYDYWGQGTQVTVSS | low polyreactivity |
| QVHLVESGGGLVQAGGSLRLSCAASGFTFNLYAMGWYRQAPGQERELVAAINSSGGTYYADSVKGRFTLSRDNAKNTVYLQMNSLTAEDTAVYYCAADFPYTPWSYHHHVWSPDFVYWGQGTQVTVSS | low polyreactivity |
| QVHLVESGGGLVQAGGSLRLSCAASGFTFPIYAIGWYRQAPGKERELVAAITTRGGSTYYADSVKGRFTISRDNAKNTVYLQMNSLKPEDTAVYYCNNRGRRTDYDYWGQGTQVTVSS | high polyreactivity |
| QVHLVESGGGLVQAGGSLRLSCAASGFTFYAMGWYRQAPGKERELVAAIDQGGDRTYYADSVKGRFTISRDNAKNTVYFQMNSLKPEDTAVYYCAARYRRTWRLIYWGQGTQVTVSS | high polyreactivity |
| QVHLVESGGGLVQAGGSLRLSCAASGFTFYRYAMGWYRQAPGKERELVAAISRRGVSTDYADSVKGRFTISRDNAKNTVYLQMNSLKPEDTAVYYCAASYSRGVGKFGYWGQGSQVTVSS | high polyreactivity |
| QVHLVESGGGLVQAGGSLRLSCAASGGIFKQYAMGLYRQAPGKERDLVAAITWSGGSTYYADSVKGRFTISRDNAKNTVYLQMNRLKPVDTAVYYCAADRRYLDRDKHRYGYWGQGTQVTVSS | low polyreactivity |
| QVHLVESGGGLVQAGGSLRLSCAASGGTFQSYAMGWYRQAPGKERELVAAITQGGGRTYYADSVKGRFTISRDNAKNTVYLQMNSLKPEDTAVYYCAARQKTPYYYNYGYWGQGTQVTVSS | high polyreactivity |

| Sequence | polyreactivity (PSR sort gate) |
| --- | --- |
| QVHLVESGGGLVQAGGSLRLSCAASGGTFWWYTMGWYRQAPGKERELVATITRGGSTNYADSVKGRFTISRDNAKNTVYLQMNSLKPEDTAVYYCSARWYVYVHFERYYWGQGTQVTVSS | high polyreactivity |
| QVHLVESGGGLVQAGGSLRLSCAASGGTIGTYAMGWYRQAPGKERELVAAISGRGGSTFYADSVKGRFTISRDNAKNSVYLQMNSLKPEDTAVYYSARGHGRSSKYDYWGQGTQVTVSS | high polyreactivity |
| QVHLVESGGGLVQAGGSLRLSCAASGIIFAPNAMGWYRQAPGKEREVVAGISSRGGSTYYADSVKGRFTISRDNAKNTVYLQMNSLKPEDTAVYYCAADLSYNPDEYWGQGTQVTVSS | low polyreactivity |
| QVHLVESGGGLVQAGGSLRLSCAASGIIFAYYAMGWYRQAPGKERELVAAISSTGSTHYADSVKGRFTISRDNAKNTVYLQMNSLKPEDTAVYYCNAYYYYRFKPSHPGLRSYYWGQGTQVTVSS | high polyreactivity |
| QVHLVESGGGLVQAGGSLRLSCAASGIIFTWYAMGMYRQAPGKEREMVAAISGSGDITYYADSVKGRFTISRDNAKNTVYLQMNSLKPEDTAVYYCAADPWTYWEDYDYWGQGTQVTVSS | low polyreactivity |
| QVHLVESGGGLVQAGGSLRLSCAASGIILYRNAMGWYRQAPGKERELVAAITNTGSRTYYADSVKGRFTISRDNAKNTVYLQMTSLKPEDTAVYYCAAYYYYSAYGDDYWGQGTQVTVSS | high polyreactivity |
| QVHLVESGGGLVQAGGSLRLSCAASGITFKWNDMGWYRQAPGKEREFVAAITGSTGSTFYADSVKGRFTISRDNAKNTVYLQMNSLKPEDTAVYFCAAGPWFYYWRQGTQVTVSS | low polyreactivity |
| QVHLVESGGGLVQAGGSLRLSCAASGITFYRYAMGWYRQAPWKERELVAAITVGGRTYYADSVKGRFTISRDNAKNNVYLQMNSLKPEDTAVYYCNVRTLHSVRGYYYWGQGTQVTVSS | high polyreactivity |
| QVHLVESGGGLVQAGGSLRLSCAASGKIFRSYMGWYRQAPGKERELVASISRRGGSTYYADSEKGRFTISRDNAKNTVTLQMISLKPEDTAVYYCANVVNYPSARYCYWGQGTQVTVSS | high polyreactivity |
| QVHLVESGGGLVQAGGSLRLSCAASGLIFVKYALGWYRQAPGKEREFVAAITRSGGTTYYADSVKGRFTISRDNAKNTVYLQMNSLKPEDTAVYYCAAGVVIYFFGGGDYWGQGTQVTVSS | low polyreactivity |
| QVHLVESGGGLVQAGGSLRLSCAASGLIFVYNAMGWYRQAPGKERELVAGITSGGSTYYADSVKGRFTISRDNAKNTVYLQMNSLKPEDTAVSYCAAGYYDLYLWWGYDYWGQGTQVTVSS | high polyreactivity |
| QVHLVESGGGLVQAGGSLRLSCAASGLTFAYYAMGWYRQAPGKERELVAAITDSAGNTYYADSVKGRFTISRDNAKNTVYLQMNSLKQEDTAVYYCAAAWPSTGLLYVLGYSGYGYWGQGTQVTVSS | low polyreactivity |
| QVHLVESGGGLVQAGGSLRLSCAASGNSFTGNAMGWYRQAPGKETELVAALSKRGGSTFYADSVKGRFTISRDNPKNTVYLQLNRLKPEDTAVYYCNALRRGVRDPYGYWGQGTQVTVSS | high polyreactivity |
| QVHLVESGGGLVQAGGSLRLSCAASGNTFYAYARGWYRQAPGKERELVAAIARAGNTYYADSVKGRFTISRDNAKNTVYLQMNSLKPEDTAVYYCNADDWWYGDNYWGQGTEVTVSS | high polyreactivity |
| QVHLVESGGGLVQAGGSLRLSCAASGNTFYQYAMGWYRQAPGKERELVAAISSSGGSTYYADSVKGRFTISRDNAKNTVYLQMNSLKPEDTAVYYCATDKWYGYYYWGPGTQVTVSS | low polyreactivity |
| QVHLVESGGGLVQAGGSLRLSCAASGNTLRVYTKGWYRQAPWKERELVAAISRRGSRTYYADTVKGRFTISRENAKYTVYLQMNSLKPEDTAVYYCAAGIPYPDDYWGQGTQVTVSS | high polyreactivity |
| QVHLVESGGGLVQAGGSLRLSCAASGRIFDYNTMGWYRQAPGKERELVAAITGGTGSTYYADSVKGRFTISRDNAKNTVYLQMNSLKPEDTAVYYCAAGFHKRVTPEILYDYWGQGTQLTVSS | low polyreactivity |
| QVHLVESGGGLVQAGGSLRLSCAASGRIFGEYAMGWYRQAPGKERELVAAISYRGGRTYYADSVKGRFTISRDNAKNTVYLQMNSLKPEDTAVYYCAKTNRDEYDYWGQGTQVTVSS | high polyreactivity |
| QVHLVESGGGLVQAGGSLRLSCAASGRIFGGNVMGWYIQAPGKERELVAAISWSSGSTYYADSVKVLFTISLDNAKNTVYLQMNSQKPDDTSFYYCAADNSFRGYHSPYDYWGQGTQVTVSS | low polyreactivity |
| QVHLVESGGGLVQAGGSLRLSCAASGRIFGKYAMGWYRQAPGKERELVAAISSSGRTNSADSVKGRFTISRDNAKNTVYLQMNSLKPADTAVYYCAVRVLIHTNTRRLDYWGQGTQVTVSS | high polyreactivity |
| QVHLVESGGGLVQAGGSLRLSCAASGRIFNYYAMGWYRQAHGKERELVAAISNGGSTYYADSVKGRFTISRDNAKNTVYLQMNSLKPEDTAVYYCNAAARNGYARRVYYWGQGTQVTVSS | high polyreactivity |
